# According to US20220411514A1, “ANTI-GAL3 ANTIBODIES AND METHODS OF USE FOR INSULIN RESISTANCE” (TrueBinding, Inc., priority 2021, published 2022):
# Biological target: Human Galectin-3 protein (Acro Biosystems, GA3-H5129) (human) (UniProt P17931)
# Experiment: ELISA, INSR binding to coated Gal3 with 3 ug/mL antibody
# Chain of Human Galectin-3 protein (Acro Biosystems, GA3-H5129) (human) (P17931 2-250): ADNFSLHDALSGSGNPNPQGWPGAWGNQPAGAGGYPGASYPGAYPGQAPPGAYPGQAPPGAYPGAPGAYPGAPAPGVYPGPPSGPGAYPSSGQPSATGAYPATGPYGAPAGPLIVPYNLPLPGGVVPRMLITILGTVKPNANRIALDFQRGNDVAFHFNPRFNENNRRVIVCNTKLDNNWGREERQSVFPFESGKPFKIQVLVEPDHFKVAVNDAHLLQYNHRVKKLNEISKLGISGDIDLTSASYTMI
row,"Gal3-INSR binding left, % of unblocked sample [%]",Binder
1,< 5,"20D11.2C6 (antibody, V domains shown) VH: EVQLQQSGPELVKPGASVKISCKASGYTFTDFYINWVKQSHGKSLEWIGDINPKNGGINYNPKFKIKATLTVDKSSSTSYMDLRGLTSEDSAVYYCTSGYGFPYWGQGTLVTVSA VL: DIQMNQSPSSLSASLGDTITITCRASQNIYIWLSWYQQKPGNIPKLLIYKASNLHTGVPSRFSGSGSGTDFTLTISTLQPEDIATYFCLQGQSYPLTFGAGTKLEMKR"
2,< 5,"2D10.2B2 (antibody, V domains shown) VH: QVQLQQSGPELVKPGASVKISCKASGYTFTDYYINWVKQRPGQGLEWIGWIYPGSNDTKYNEKFKGKATLTVDTSSSTAYMQLGSLTSEDSAVYFCANYFGCSGWFFDVWGTGTTVTVSS VL: DIVMTQAAFSNPVTLGTSASISCRSSKSLLHSDGITYLYWYLQRPGQSPQLLIYRMSNLASGVPDRFSGSGSGTDFTLRISRVEAEDVGVYYCAQMIEFPLTFGAGTILELKR"
3,< 5,"4A11.2B5 (antibody, V domains shown) VH: QVQLQQSGPELVKPGASVKISCKASGYSFTNYYIHWVKQRPGQGLEWIGWIYPGSGNTNYNEKFKGKATLTADTSSSTTNMQLSSLTSEDSAVYYCSTAPGGFDVWGSGTTVTVSS VL: DIVMTQAAFSNPVTLGTSASISCRSSKSLLHSDGITYLYWYLQRPGQSPQLLIYRMSNLASGVPDRFSGSGSGTDFTLRISRVEAEDVGVYYCAQMLEFPLTFGAGTKLELKR"
4,< 5,"6H6.2D6 (antibody, V domains shown) VH: QIQLVQSGPELKKPGETVKISCKASGYTFTTYGMSWVKQAPGKGLKWMAWINTYSGVPTYADDFKGRFAFSLETSASTAYLQINNLTNEDTATYFCARGPYAMDYWGQGTSVTVSS VL: DIQMTQTTSSLSASLGDRVTISCSASQGISNYLNWYQQKPDGTVKLLIYYTSSLHSGVPSRFSGSGSGTDYSLTISNLEPEDIATYYCQQYSELPYTFGSGTKLEIKR"
